According to patent publication US20190375786A1, “STABLE PEPTIDES AND METHODS OF USE THEREOF” (Fred Hutchinson Cancer Research Center, priority 2016, published 2019):

What was measured:
[1] = Resistance to elevated temperature, HPLC; assay type: physicochemical; settings: HPLC peak vs untreated peptide; for Resistance to Temperature (75° C.): 75° C. for one hour; for Resistance to Temperature (100° C.): 100° C. for one hour
Protocol: (§1) Peptides were first suspended in 500 μl of ddH2O to a stock concentration of 2 mg/ml. Reactions were prepared by adding 12.5 μg of peptide from the stock solution to a 10 mM solution of DTT in PBS and allowed to incubate at room temperature for 30 minutes. Other reactions were prepared with 12.5 μg peptide and 500 U/ml trypsin in 25 mM Tris/75 mM NaCl buffer (pH 7.0) and incubated for 30 minutes at 37.5° C. These reactions were then quenched with 5 μg of soybean trypsin inhibitor (I) and, in some cases, 10 mM dithiothreitol (DTT). Reversed phase HPLC (RP-HPLC) was run on samples using an Agilent 1260 HPLC equipped with a C-18 Poroshell 120B column. Sample were analyzed by a gradient method with a mobile phase of Solvent A (water with 0.1% TFA) and Solvent B (acetonitrile with 0.1% TFA). Solvent B was ramped up from 5%-45% of the mobile phase over a period of 10 minutes. For testing pepsin digestion resistance, reactions were prepared with 12.5 μg peptide with or without 500 U/ml pepsin in simulated gastric fluid (SGF; pH 1.05; […] sodium chloride in 0.7% (v/v) hydrochloric acid) and were incubated for 30 minutes at 37.5° C. For testing temperature resistance, peptides were incubated at 70° C., 75° C., or 100° C. for one hour in 0.5 mM PBS, pelleted, and then the supernatant was analyzed by HPLC.
This example illustrates peptide stability at high temperatures. Peptides were first suspended in 500 μl of ddH2O to a stock concentration of 2 mg/ml. Reactions were prepared by adding 6.25 μl of peptide from the stock solution with 95 μl ddH2O and incubated at room temperature, 70° C., or 100° C. for one hour in a Thermocycler. RP-HPLC was then run on samples using an Agilent 1260 HPLC equipped with a C-18 Poroshell 120B column. Sample were analyzed by a gradient method with a mobile phase of Solvent A (water with 0.1% TFA) and Solvent B (acetonitrile with 0.1% TFA). Solvent B was ramped up from 5%-45% of the mobile phase over a period of 10 minutes.

[2] = Resistance to reduction by DTT, RP-HPLC; assay type: physicochemical; settings: for Resistance to DTT Reduction (10 mM): 10 mM DTT in PBS, room temperature, 30 minutes, HPLC peak vs untreated peptide
Protocol: Peptides were first suspended in 500 ul of ddH2O to a stock concentration of 2 mg/ml. Reactions were prepared by adding 12.5 ug of peptide from the stock solution to a 10 mM solution of DTT in PBS and allowed to incubate at room temperature for 30 minutes. Other reactions were prepared with 12.5 μg peptide with or without 500 U/ml pepsin in simulated gastric fluid (SGF; pH 1.05; […] sodium chloride in 0.7% (v/v) hydrochloric acid) and were incubated for 30 minutes at 37.5° C. Some reactions were quenched with a final concentration of 100 mM Tris base and 10 mM dithiothreitol (DTT). Some reactions were performed in all of the above components, including simulated gastric fluid, pepsin, Tris, and DTT (referred to as SPTD). Reversed phase HPLC (RP-HPLC) was run on samples using an Agilent 1260 HPLC equipped with a C-18 Poroshell 120B column. Sample were analyzed by a gradient method with a mobile phase of Solvent A (water with 0.1% TFA) and Solvent B (acetonitrile with 0.1% TFA). Solvent B was ramped up from 5%-45% of the mobile phase over a period of 10 minutes. Peptides were detected at an absorbance of 214 nm and 280 nm.
as §1
This example illustrates peptide stability in biological conditions including in the presence of reducing agents, proteases, oxidative conditions, acidic conditions, and simulated gastric fluids. […] Various peptides were suspended in 500 μl of ddH2O at a stock concentration of 2 mg/ml. This was then diluted in accord with the reaction conditions to prevent adverse buffering effects. Reactions were prepared with 12.5 μg peptide dissolved in solution and, in some samples, additionally suspended in a 10 mM solution of DTT, simulated gastric fluid (pH 1.05; […] sodium chloride in 0.7% (v/v) hydrochloric acid), 500 U pepsin (5000 U/ml pepsin), 50 U trypsin (500 U/ml trypsin) with 1 mg/ml inhibitor in PBS, or a combination of any of these conditions. All protease reactions were incubated for 30 min at room temperature and then quenched. Pepsin reactions were quenched by adding Tris base to a final concentration of 0.075 M. Trypsin reactions were quenched by adding excess soybean trypsin inhibitor. RP-HPLC was then run on samples using an Agilent 1260 HPLC equipped with a C-18 Poroshell 120B column. Sample were analyzed by a gradient method with a mobile phase of Solvent A (water with 0.1% TFA) and Solvent B (acetonitrile with 0.1% TFA). Solvent B was ramped up from 5%-45% of the mobile phase over a period of 10 minutes.
FIG. 18 illustrates high performance liquid chromatograph (HPLC) traces of peptides in non-reducing (NR) conditions (solid trace) or in 10 mM DTT reducing (R) conditions (dashed trace). […]

[3] = target: trypsin (Sus scrofa, UniProt P00761); assay: Trypsin digestion resistance of soluble peptide, RP-HPLC; assay type: in vitro ADME, porcine; set-up: purchased Sigma Aldrich 6567; settings: 30 minutes at 37.5° C.; for Resistance to Trypsin (500 U/ml): 500 U/ml trypsin, HPLC peak vs untreated peptide
Summary of the method: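 Read-out was RP-HPLC (C-18, water/acetonitrile with 0.1% TFA, 5-45% over 10 min) of peptide left after trypsin treatment. Digest: 12.5 μg peptide, 500 U/ml porcine trypsin, PBS, 37.5° C for 30 min, stopped by soybean trypsin inhibitor; samples then reduced (10 mM DTT) or left non-reduced.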

[4] = target: pepsin (Sus scrofa, UniProt P00791); assay: Pepsin digestion resistance in simulated gastric fluid, RP-HPLC; assay type: in vitro ADME, porcine; set-up: purchased Sigma Aldrich P7012; settings: 500 U/ml pepsin in SGF pH 1.05, 30 minutes at 37.5° C.; HPLC peak vs untreated peptide
Summary of the method: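 Digestion resistance read by reversed-phase HPLC (C-18, 0.1% TFA, 5–45% acetonitrile over 10 min; 214/280 nm) after 12.5 μg peptide spent 30 min at 37.5 °C in pH 1.05 simulated gastric fluid, with or without 500 U/ml pepsin. Some samples quenched with Tris base and DTT.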

Sequence of pepsin (P00791 60-385): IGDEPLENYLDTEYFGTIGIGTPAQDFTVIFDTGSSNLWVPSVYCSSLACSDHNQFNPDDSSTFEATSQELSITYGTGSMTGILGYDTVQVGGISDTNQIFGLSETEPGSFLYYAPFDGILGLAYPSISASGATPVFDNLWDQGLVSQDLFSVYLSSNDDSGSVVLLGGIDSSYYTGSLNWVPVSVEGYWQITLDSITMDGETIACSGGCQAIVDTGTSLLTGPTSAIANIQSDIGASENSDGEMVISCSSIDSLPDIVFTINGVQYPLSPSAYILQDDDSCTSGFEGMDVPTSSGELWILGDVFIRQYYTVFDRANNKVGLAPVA
Sequence of trypsin (P00761 9-231): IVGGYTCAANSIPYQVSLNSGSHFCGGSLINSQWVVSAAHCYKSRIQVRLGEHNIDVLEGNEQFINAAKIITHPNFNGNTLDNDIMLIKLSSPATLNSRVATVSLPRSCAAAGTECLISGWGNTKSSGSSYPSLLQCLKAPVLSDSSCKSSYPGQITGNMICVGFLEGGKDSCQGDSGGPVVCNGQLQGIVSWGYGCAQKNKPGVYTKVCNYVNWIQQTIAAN

## 17 (GSACQFWSCNSSCISRGYRQGYCWGIQYKYCQCQ) [compound 17]
[1]
  Resistance to Temperature (75° C.): High (A peptide classified as high indicates that the majority (at least 75%) of the HPLC peak of the treated peptide is still present as compared to the HPLC peak of the untreated peptide)
  Resistance to Temperature (100° C.): High (A peptide classified as high indicates that the majority (at least 75%) of the HPLC peak of the treated peptide is still present as compared to the HPLC peak of the untreated peptide)
[2]
  Resistance to DTT Reduction (10 mM): Moderate (A peptide classified as medium indicates that about half (between 25% and 75%) of the HPLC peak of the treated peptide disappeared as compared to the HPLC peak of the untreated peptide)
[3]
  Resistance to Trypsin (500 U/ml): Low (A peptide classified as low indicates that the majority (over 75%) of the HPLC peak of the treated peptide disappeared as compared to the HPLC peak of the untreated peptide)
[4]
  Resistance to Pepsin (500 U/ml): High (A peptide classified as high indicates that the majority (at least 75%) of the HPLC peak of the treated peptide is still present as compared to the HPLC peak of the untreated peptide)

## 41 (GSPDEYIERAKECCKKGDIQCCLRYFEESGDPNVMLICLACP) [compound 41]
[2]
  Resistance to DTT Reduction (10 mM): Low (A peptide classified as low indicates that the majority (over 75%) of the HPLC peak of the treated peptide disappeared as compared to the HPLC peak of the untreated peptide)

## 15 (GSCIGEGVPCDENDPRCCFGLVCLKPTLHGIWYKSYYCYKK) [compound 15]
[1]
  Resistance to Temperature (75° C.): High (A peptide classified as high indicates that the majority (at least 75%) of the HPLC peak of the treated peptide is still present as compared to the HPLC peak of the untreated peptide)
  Resistance to Temperature (100° C.): Low (A peptide classified as low indicates that the majority (over 75%) of the HPLC peak of the treated peptide disappeared as compared to the HPLC peak of the untreated peptide)
[2]
  Resistance to DTT Reduction (10 mM): Low (A peptide classified as low indicates that the majority (over 75%) of the HPLC peak of the treated peptide disappeared as compared to the HPLC peak of the untreated peptide)
[3]
  Resistance to Trypsin (500 U/ml): Low (A peptide classified as low indicates that the majority (over 75%) of the HPLC peak of the treated peptide disappeared as compared to the HPLC peak of the untreated peptide)
[4]
  Resistance to Pepsin (500 U/ml): High (A peptide classified as high indicates that the majority (at least 75%) of the HPLC peak of the treated peptide is still present as compared to the HPLC peak of the untreated peptide)

## 44 (GSPDEYIERAKECCKKQDIQCCLRIFDESGDPNVMLICLFCW) [compound 44]
[2]
  Resistance to DTT Reduction (10 mM): Moderate (A peptide classified as medium indicates that about half (between 25% and 75%) of the HPLC peak of the treated peptide disappeared as compared to the HPLC peak of the untreated peptide)

## 25 (GSACLAEYQKCEGSTVPCCPGLSCSAGRFRKTKLCTK) [compound 25]
[1]; 70° C. for one hour
  Resistance to Temperature (70° C.): High (A peptide classified as high indicates that the majority (at least 75%) of the HPLC peak of the treated peptide is still present as compared to the HPLC peak of the untreated peptide)
[1]
  Resistance to Temperature (75° C.): High (A peptide classified as high indicates that the majority (at least 75%) of the HPLC peak of the treated peptide is still present as compared to the HPLC peak of the untreated peptide)
  Resistance to Temperature (100° C.): Low (A peptide classified as low indicates that the majority (over 75%) of the HPLC peak of the treated peptide disappeared as compared to the HPLC peak of the untreated peptide)
[2]
  Resistance to DTT Reduction (10 mM): Low (A peptide classified as low indicates that the majority (over 75%) of the HPLC peak of the treated peptide disappeared as compared to the HPLC peak of the untreated peptide)
[3]
  Resistance to Trypsin (500 U/ml): Low (A peptide classified as low indicates that the majority (over 75%) of the HPLC peak of the treated peptide disappeared as compared to the HPLC peak of the untreated peptide)
[4]
  Resistance to Pepsin (500 U/ml): High (A peptide classified as high indicates that the majority (at least 75%) of the HPLC peak of the treated peptide is still present as compared to the HPLC peak of the untreated peptide)

## 40 (GSPDEYIERAKECCKKGDIQCCLRYFEESGDPNVMLICAFCP) [compound 40]
[2]
  Resistance to DTT Reduction (10 mM): Low (A peptide classified as low indicates that the majority (over 75%) of the HPLC peak of the treated peptide disappeared as compared to the HPLC peak of the untreated peptide)

## 26 (GSVGCEECPMHCKGKNANPTCDDGVCNCNV) [compound 26]
[2]
  Resistance to DTT Reduction (10 mM): Low (A peptide classified as low indicates that the majority (over 75%) of the HPLC peak of the treated peptide disappeared as compared to the HPLC peak of the untreated peptide)
[3]
  Resistance to Trypsin (500 U/ml): Moderate (A peptide classified as medium indicates that about half (between 25% and 75%) of the HPLC peak of the treated peptide disappeared as compared to the HPLC peak of the untreated peptide)

## GSDCLPHLRRCRADNDCCGRRCRRRGTNAERRCR [SEQ ID NO: 1]
[2]; 10 mM DTT, HPLC vs non-reduced peptide
  resistance to reduction by DTT (in words): not resistant
[3]; 500 U/ml trypsin (50 U per reaction), HPLC
  resistance to trypsin digestion (in words): partially resistant

## 1 (GSDCLPHLRRCRADNDCCGRRCRRRGTNAERRCR) [compound 1]
[2]
  Resistance to DTT Reduction (10 mM): Low (A peptide classified as low indicates that the majority (over 75%) of the HPLC peak of the treated peptide disappeared as compared to the HPLC peak of the untreated peptide)
[3]
  Resistance to Trypsin (500 U/ml): Moderate (A peptide classified as medium indicates that about half (between 25% and 75%) of the HPLC peak of the treated peptide disappeared as compared to the HPLC peak of the untreated peptide)

## 42 (GSFGLYDNQCATSDACSAICKYWTGSGQGKCQNNQCRCY) [compound 42]
[2]
  Resistance to DTT Reduction (10 mM): Low (A peptide classified as low indicates that the majority (over 75%) of the HPLC peak of the treated peptide disappeared as compared to the HPLC peak of the untreated peptide)
